Positions count from the first letter of the chain named. Names and notes keep the numbering of the source.
T1: EsCas13d, nuclease-dead (Eubacterium siraeum, UniProt B0MS50, R295A;H300A;R849A;H854A)
T1 sequence: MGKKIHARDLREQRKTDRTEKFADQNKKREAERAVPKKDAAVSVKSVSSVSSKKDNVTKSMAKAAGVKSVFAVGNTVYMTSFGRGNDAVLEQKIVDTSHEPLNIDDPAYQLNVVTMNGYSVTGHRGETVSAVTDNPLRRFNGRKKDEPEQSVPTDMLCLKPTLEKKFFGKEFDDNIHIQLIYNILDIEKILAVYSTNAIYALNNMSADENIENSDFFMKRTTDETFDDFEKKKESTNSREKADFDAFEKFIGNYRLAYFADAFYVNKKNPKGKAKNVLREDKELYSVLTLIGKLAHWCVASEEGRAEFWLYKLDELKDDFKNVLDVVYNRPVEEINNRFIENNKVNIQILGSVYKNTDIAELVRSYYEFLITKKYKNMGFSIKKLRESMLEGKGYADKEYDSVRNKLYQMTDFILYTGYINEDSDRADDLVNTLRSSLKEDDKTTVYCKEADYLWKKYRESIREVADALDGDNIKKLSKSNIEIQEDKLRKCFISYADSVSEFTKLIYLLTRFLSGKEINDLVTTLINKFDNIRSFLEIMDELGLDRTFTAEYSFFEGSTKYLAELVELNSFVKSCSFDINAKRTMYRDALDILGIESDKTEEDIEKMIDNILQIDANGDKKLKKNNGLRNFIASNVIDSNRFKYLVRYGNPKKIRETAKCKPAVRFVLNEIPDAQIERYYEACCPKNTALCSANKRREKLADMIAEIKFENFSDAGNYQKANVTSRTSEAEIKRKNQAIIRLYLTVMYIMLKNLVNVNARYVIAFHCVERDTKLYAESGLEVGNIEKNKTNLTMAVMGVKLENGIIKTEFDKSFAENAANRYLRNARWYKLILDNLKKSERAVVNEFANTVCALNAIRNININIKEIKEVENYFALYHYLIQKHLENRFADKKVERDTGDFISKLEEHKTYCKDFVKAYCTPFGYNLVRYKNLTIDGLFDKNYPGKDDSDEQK

B1: target 3 U7A,A13G (mixed)
RNA 1: CACCCGUGCAAAAUUGCAGGGGUCUAAAACGACCUGAAUAUUUCAGAUCAAA
RNA 2: GGGAAUGGAUCCACAUCUACGAAUUCGUUUUUGAUCUGGAAUAUACAGGUCUGCAGAUCGGAAGAGCACACGU
B2: target 3 insU 3' of 22,insU 3' of 16 (mixed)
RNA 1: B1 RNA 1
RNA 2: GGGAAUGGAUCCACAUCUACGAAUUCGUUUUUUGAUCUUGAAAUAUUCAGGUCUGCAGAUCGGAAGAGCACACGU
B3: target 3 insA 3' of 22,insA 3' of 7 (mixed)
RNA 1: B1 RNA 1
RNA 2: B2 RNA 2 with U31A, U39G, G40A, A43U, U44A, A45U, U47A
B4: target 3 insC 3' of 22,insG 3' of 6 (mixed)
RNA 1: B1 RNA 1
RNA 2: B2 RNA 2 with U31C, U39G, G40A, A43U, U44A, A45U, U47C, C48G
B5: target 3 insC 3' of 21,insC 3' of 3 (mixed)
RNA 1: B1 RNA 1
RNA 2: GGGAAUGGAUCCACAUCUACGAAUUCGUUUUCUGAUCUGAAAUAUUCAGGCUCUGCAGAUCGGAAGAGCACACGU
B6: target 3 insC 3' of 22,insU 3' of 22 (mixed)
RNA 1: B1 RNA 1
RNA 2: B2 RNA 2 with U31C, G34U, A35G, U36A, C37U, U38C
B7: target 3 insA 3' of 14,insU 3' of 3 (mixed)
RNA 1: B1 RNA 1
RNA 2: B5 RNA 2 with C32U, U33G, G34A, A35U, U36C, C37U, U38G, G39A, C51U
B8: target 3 G4C,A5U (mixed)
RNA 1: B1 RNA 1
RNA 2: B1 RNA 2 with G39A, A45U, A47U, G48C
B9: target 3 insG 3' of 11,insC 3' of 3 (mixed)
RNA 1: B1 RNA 1
RNA 2: B5 RNA 2 with C32U, U33G, G34A, A35U, U36C, C37U, U38G, G39A, A42G
B10: target 3 insC 3' of 10,insC 3' of 3 (mixed)
RNA 1: B1 RNA 1
RNA 2: GGGAAUGGAUCCACAUCUACGAAUUCGUUUUUGAUCUGAAAUCAUUCAGGCUCUGCAGAUCGGAAGAGCACACGU
B11: target 3 A9G,A18G (mixed)
RNA 1: B1 RNA 1
RNA 2: B1 RNA 2 with A34G, G39A, A43G, A45U
B12: target 3 U2A,C6U (mixed)
RNA 1: B1 RNA 1
RNA 2: B1 RNA 2 with G39A, A45U, C46U, U50A
B13: target 3 insA 3' of 22,insG 3' of 22 (mixed)
RNA 1: B1 RNA 1
RNA 2: B2 RNA 2 with U31A, U32G, G34U, A35G, U36A, C37U, U38C
B14: target 3 C6U,U10C (mixed)
RNA 1: B1 RNA 1
RNA 2: B1 RNA 2 with G39A, U42C, A45U, C46U
B15: target 3 U2G,U8G (mixed)
RNA 1: B1 RNA 1
RNA 2: B1 RNA 2 with G39A, U44G, A45U, U50G
B16: target 3 A9G,U22G (mixed)
RNA 1: B1 RNA 1
RNA 2: B1 RNA 2 with U30G, G39A, A43G, A45U
B17: target 3 insC 3' of 3,insA 3' of 3 (mixed)
RNA 1: B1 RNA 1
RNA 2: B10 RNA 2 with C43A, A44U, U46C, C47A, A48G, G50C, C51A
B18: target 3 U2G,C6U (mixed)
RNA 1: B1 RNA 1
RNA 2: B1 RNA 2 with G39A, A45U, C46U, U50G
B19: target 3 G3A,C6A (mixed)
RNA 1: B1 RNA 1
RNA 2: B1 RNA 2 with G39A, A45U, C46A, G49A
B20: target 3 A5G,C6U (mixed)
RNA 1: B1 RNA 1
RNA 2: B1 RNA 2 with G39A, A45U, C46U, A47G
B21: target 3 insA 3' of 4,insA 3' of 4 (mixed)
RNA 1: B1 RNA 1
RNA 2: B10 RNA 2 with C43A, A44U, U46C, C47A, A48G, G49A, G50A, C51G
B22: target 3 insU 3' of 5,insC 3' of 3 (mixed)
RNA 1: B1 RNA 1
RNA 2: B10 RNA 2 with C43A, A44U, U46C, C47A, A48U
B23: target 3 U2A,C6A (mixed)
RNA 1: B1 RNA 1
RNA 2: B1 RNA 2 with G39A, A45U, C46A, U50A
B24: target 3 insC 3' of 9,insC 3' of 7 (mixed)
RNA 1: B1 RNA 1
RNA 2: B10 RNA 2 with C43A, A44C, A48C, G49A, C51G
B25: target 1 U3G,C6U (mixed)
RNA 1: CACCCGUGCAAAAAUGCAGGGGUCUAAAACUGAGCGGAUAACCUCUCUAUGG
RNA 2: GGGAAUGGAUCCACAUCUACGAAUUCGUACCAUAGAGAGGUUAUCUGCGCACCGAGAUCGGAAGAGCACACGU
B26: target 1 insG 3' of 16,insG 3' of 4 (mixed)
RNA 1: B25 RNA 1
RNA 2: GGGAAUGGAUCCACAUCUACGAAUUCGUACCAUAGAGGAGGUUAUCCGCGUCACCGAGAUCGGAAGAGCACACGU
B27: target 1 insG 3' of 19,insU 3' of 13 (mixed)
RNA 1: B25 RNA 1
RNA 2: GGGAAUGGAUCCACAUCUACGAAUUCGUACCAUGAGAGAGUGUUAUCCGCUCACCGAGAUCGGAAGAGCACACGU

Biological target: T1, EsCas13d, nuclease-dead
Experiment: crRNA (strand 1, pre-loaded); Mg2+; 40 mM Tris-HCl pH 7.5, 150 mM NaCl, 6 mM MgCl2, 1 mM DTT, 0.1% Tween-20, 0.2 mg/ml BSA; 25 C; 10 min per concentration, then washed
Details: tags: His6-TwinStrep-SUMO cleaved; N-terminal SNAP kept (SNAP-Surface 488); label: 3' end held by stalled T7 RNA polymerase

Binder	Kd [nM]
B1	100 ± 50
B2	58 ± 9
B3	65 ± 21.5
B4	22.1 ± 2.45
B5	80 ± 30.5
B6	19.1 ± 3.15
B7	90.5 ± 40.5
B8	42.5 ± 10
B9	76 ± 21.5
B10	~96
B11	26.4 ± 2.95
B12	4.55 ± 0.43
B13	48 ± 7
B14	88 ± 11.5
B15	47 ± 14.5
B16	69.5 ± 16.5
B17	9.35 ± 1.15
B18	2.4 ± 0.255
B19	51.5 ± 5.5
B20	11.5 ± 1.3
B21	21.1 ± 3.3
B22	10.9 ± 1.1
B23	15.6 ± 1.9
B24	113 ± 50.5
B25	4.79 ± 0.35
B26	13.7 ± 0.7
B27	51 ± 20

From paper PMC10786891, “Massively parallel profiling of RNA-targeting CRISPR-Cas13d”
